Read-outs that look alike come from different tables or passages of the source.
Key:
[1] = biological target: T1, AFP158/HLA-A*02:01 complex (human); assay: SPR; vs AS170036 VL1VH1
T1 construct: biotinylated on the BSP by BirA for ELISA and panning; also called biotinylated AFP158/HLA-A*02:01 complex; Bio-AFP158

[2] = biological target: T1, AFP158/HLA-A*02:01 complex; assay: SPR; vs AS170036 VL1VH1; remark: listed apart in the source
[3] = biological target: OR1I1 peptide/HLA-A*02:01 complex (recombinant) (human); assay: SPR
[4] = biological target: OR51B6 peptide/HLA-A*02:01 complex (recombinant) (human); assay: SPR
[5] = biological target: PTP4A1 peptide/HLA-A*02:01 complex (recombinant) (human); assay: SPR
[6] = biological target: NR2E1 peptide/HLA-A*02:01 complex (recombinant) (human); assay: SPR
[7] = biological target: RCL1 peptide/HLA-A*02:01 complex (recombinant) (human, UniProt P16213 21-119 (Pongo pygmaeus entry)); assay: SPR
[8] = biological target: ZNF566 peptide/HLA-A*02:01 complex (recombinant) (human); assay: SPR
[9] = biological target: ATG9A peptide/HLA-A*02:01 complex (recombinant) (human); assay: SPR
[10] = biological target: CDC14A peptide/HLA-A*02:01 complex (recombinant) (human); assay: SPR
[11] = biological target: BRCA2 peptide/HLA-A*02:01 complex (recombinant) (human); assay: SPR
[12] = biological target: RP1 peptide/HLA-A*02:01 complex (recombinant) (human, UniProt P16213 21-119 (Pongo pygmaeus entry)); assay: SPR
[13] = biological target: T1, AFP158/HLA-A*02:01 complex; assay: SPR, crude scFv captured;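 note: Peptide–MHC complex flowed at several concentrations over sensorchip-captured scFv, Kd derived from on- and off-rates obtained from the association and dissociation curves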
Procedure: The experiment was carried out as follows. The crude scFv protein were captured onto the sensorchip. Different concentrations (320, 160, 40 nM) of AFP158/HLA-A*02:01 complex flowed over the sensorchip surface, and were allowed to bind the antibody fragment for 100 s followed by injection of the running buffer to allow dissociation of the complex. On-rate (kd) and off-rate (kd) were calculated based on association and dissociation curve, and were used to estimate the equilibrium dissociation constant (KD).

Binder | Affinity increase [1] | Affinity increase [2] | binding result [3] | binding result [4] | binding result [5] | binding result [6] | binding result [7] | binding result [8] | binding result [9] | binding result [10] | binding result [11] | binding result [12] | Kd [13]
AS170036 VL1VH1-VHG56N (scFv) scFv: QSALTQPRSVSGSPGQSVTISCAGTSSDVGSENYVSWYQQHPGKAPKLMIYQVNKRASGVPDRFSGSKSGNTASLTISGLQAEDEADYYCASYRSSDHNIVFGGGTKLTVLGGGGSGGGGSGGGGSEVQLVESGGGLVQPGGSLRLSCAASGFTFSSYAMSWVRQAPGKGLEWVSTINSGTNSPYYADSVKGRFTISRDNSKNTLYLQMNSLRAEDTAVYYCAKNFFDGSWFLGPPAMDYWGQGTLVTVSSHHHHHH | 2.5 fold | > 2 fold | no binding (tested: all below 3.5 RU) | no binding (tested: all below 3.5 RU) | no binding (tested: all below 3.5 RU) | no binding (tested: all below 3.5 RU) | no binding (tested: all below 3.5 RU) | no binding (tested: all below 3.5 RU) | no binding (tested: all below 3.5 RU) | no binding (tested: all below 3.5 RU) | no binding (tested: all below 3.5 RU) | no binding (tested: all below 3.5 RU) | 92 nM
AS170036 VL1VH1-VHG56Y (scFv) scFv: QSALTQPRSVSGSPGQSVTISCAGTSSDVGSENYVSWYQQHPGKAPKLMIYQVNKRASGVPDRFSGSKSGNTASLTISGLQAEDEADYYCASYRSSDHNIVFGGGTKLTVLGGGGSGGGGSGGGGSEVQLVESGGGLVQPGGSLRLSCAASGFTFSSYAMSWVRQAPGKGLEWVSTINSGTYSPYYADSVKGRFTISRDNSKNTLYLQMNSLRAEDTAVYYCAKNFFDGSWFLGPPAMDYWGQGTLVTVSSHHHHHH | 6.6 fold | > 2 fold | no binding (tested: all below 3.5 RU) | no binding (tested: all below 3.5 RU) | no binding (tested: all below 3.5 RU) | no binding (tested: all below 3.5 RU) | no binding (tested: all below 3.5 RU) | no binding (tested: all below 3.5 RU) | no binding (tested: all below 3.5 RU) | no binding (tested: all below 3.5 RU) | no binding (tested: all below 3.5 RU) | no binding (tested: all below 3.5 RU) | 35 nM
AS170036 VL1VH1-VHG108A (scFv) scFv: QSALTQPRSVSGSPGQSVTISCAGTSSDVGSENYVSWYQQHPGKAPKLMIYQVNKRASGVPDRFSGSKSGNTASLTISGLQAEDEADYYCASYRSSDHNIVFGGGTKLTVLGGGGSGGGGSGGGGSEVQLVESGGGLVQPGGSLRLSCAASGFTFSSYAMSWVRQAPGKGLEWVSTINSGTGSPYYADSVKGRFTISRDNSKNTLYLQMNSLRAEDTAVYYCAKNFFDGSWFLAPPAMDYWGQGTLVTVSSHHHHHH | 5.5 fold | > 2 fold | no binding (tested: all below 3.5 RU) | – | no binding (tested: all below 3.5 RU) | no binding (tested: all below 3.5 RU) | no binding (tested: all below 3.5 RU) | no binding (tested: all below 3.5 RU) | no binding (tested: all below 3.5 RU) | no binding (tested: all below 3.5 RU) | no binding (tested: all below 3.5 RU) | no binding (tested: all below 3.5 RU) | 42 nM
AS170036 VL1VH1-VHG108D (scFv) scFv: QSALTQPRSVSGSPGQSVTISCAGTSSDVGSENYVSWYQQHPGKAPKLMIYQVNKRASGVPDRFSGSKSGNTASLTISGLQAEDEADYYCASYRSSDHNIVFGGGTKLTVLGGGGSGGGGSGGGGSEVQLVESGGGLVQPGGSLRLSCAASGFTFSSYAMSWVRQAPGKGLEWVSTINSGTGSPYYADSVKGRFTISRDNSKNTLYLQMNSLRAEDTAVYYCAKNFFDGSWFLDPPAMDYWGQGTLVTVSSHHHHHH | 5.5 fold | > 2 fold | no binding (tested: all below 3.5 RU) | – | no binding (tested: all below 3.5 RU) | no binding (tested: all below 3.5 RU) | no binding (tested: all below 3.5 RU) | no binding (tested: all below 3.5 RU) | no binding (tested: all below 3.5 RU) | no binding (tested: all below 3.5 RU) | no binding (tested: all below 3.5 RU) | no binding (tested: all below 3.5 RU) | 42 nM
AS170036 VL1VH1-VHG108S (scFv) scFv: QSALTQPRSVSGSPGQSVTISCAGTSSDVGSENYVSWYQQHPGKAPKLMIYQVNKRASGVPDRFSGSKSGNTASLTISGLQAEDEADYYCASYRSSDHNIVFGGGTKLTVLGGGGSGGGGSGGGGSEVQLVESGGGLVQPGGSLRLSCAASGFTFSSYAMSWVRQAPGKGLEWVSTINSGTGSPYYADSVKGRFTISRDNSKNTLYLQMNSLRAEDTAVYYCAKNFFDGSWFLSPPAMDYWGQGTLVTVSSHHHHHH | 2.8 fold | > 2 fold | no binding (tested: all below 3.5 RU) | no binding (tested: all below 3.5 RU) | no binding (tested: all below 3.5 RU) | no binding (tested: all below 3.5 RU) | no binding (tested: all below 3.5 RU) | no binding (tested: all below 3.5 RU) | no binding (tested: all below 3.5 RU) | no binding (tested: all below 3.5 RU) | no binding (tested: all below 3.5 RU) | no binding (tested: all below 3.5 RU) | 96 nM
AS170036 VL1VH1-VLH98F (scFv) scFv: QSALTQPRSVSGSPGQSVTISCAGTSSDVGSENYVSWYQQHPGKAPKLMIYQVNKRASGVPDRFSGSKSGNTASLTISGLQAEDEADYYCASYRSSDFNIVFGGGTKLTVLGGGGSGGGGSGGGGSEVQLVESGGGLVQPGGSLRLSCAASGFTFSSYAMSWVRQAPGKGLEWVSTINSGTGSPYYADSVKGRFTISRDNSKNTLYLQMNSLRAEDTAVYYCAKNFFDGSWFLGPPAMDYWGQGTLVTVSSHHHHHH | – | > 2 fold | no binding (tested: all below 3.5 RU) | no binding (tested: all below 3.5 RU) | no binding (tested: all below 3.5 RU) | no binding (tested: all below 3.5 RU) | no binding (tested: all below 3.5 RU) | no binding (tested: all below 3.5 RU) | – | no binding (tested: all below 3.5 RU) | no binding (tested: all below 3.5 RU) | no binding (tested: all below 3.5 RU) | –
AS170036 VL1VH1-VLH98I (scFv) scFv: QSALTQPRSVSGSPGQSVTISCAGTSSDVGSENYVSWYQQHPGKAPKLMIYQVNKRASGVPDRFSGSKSGNTASLTISGLQAEDEADYYCASYRSSDINIVFGGGTKLTVLGGGGSGGGGSGGGGSEVQLVESGGGLVQPGGSLRLSCAASGFTFSSYAMSWVRQAPGKGLEWVSTINSGTGSPYYADSVKGRFTISRDNSKNTLYLQMNSLRAEDTAVYYCAKNFFDGSWFLGPPAMDYWGQGTLVTVSSHHHHHH | – | > 2 fold | no binding (tested: all below 3.5 RU) | no binding (tested: all below 3.5 RU) | no binding (tested: all below 3.5 RU) | no binding (tested: all below 3.5 RU) | no binding (tested: all below 3.5 RU) | no binding (tested: all below 3.5 RU) | – | no binding (tested: all below 3.5 RU) | no binding (tested: all below 3.5 RU) | no binding (tested: all below 3.5 RU) | –
AS170036 VL1VH1-VLH98Q (scFv) scFv: QSALTQPRSVSGSPGQSVTISCAGTSSDVGSENYVSWYQQHPGKAPKLMIYQVNKRASGVPDRFSGSKSGNTASLTISGLQAEDEADYYCASYRSSDQNIVFGGGTKLTVLGGGGSGGGGSGGGGSEVQLVESGGGLVQPGGSLRLSCAASGFTFSSYAMSWVRQAPGKGLEWVSTINSGTGSPYYADSVKGRFTISRDNSKNTLYLQMNSLRAEDTAVYYCAKNFFDGSWFLGPPAMDYWGQGTLVTVSSHHHHHH | – | > 2 fold | no binding (tested: all below 3.5 RU) | no binding (tested: all below 3.5 RU) | – | no binding (tested: all below 3.5 RU) | no binding (tested: all below 3.5 RU) | no binding (tested: all below 3.5 RU) | – | no binding (tested: all below 3.5 RU) | no binding (tested: all below 3.5 RU) | no binding (tested: all below 3.5 RU) | –

From US20240279318A1 (NANJING LEGEND BIOTECH, published 2024)
